Data reported in EP4671282A1 (Jiangsu Hengrui Pharmaceuticals Co., Ltd., dated 2025).
Read-outs that look alike come from different tables or passages of the source. Values belong to the binder of their own block, whether it stands above or below them.

Legend:
[1] = molecular target: T1, IL-36R on human skin squamous cell line A431 (human, UniProt Q9HB29 20-575); test: cell-based or functional assay
T1 sequence (looked up): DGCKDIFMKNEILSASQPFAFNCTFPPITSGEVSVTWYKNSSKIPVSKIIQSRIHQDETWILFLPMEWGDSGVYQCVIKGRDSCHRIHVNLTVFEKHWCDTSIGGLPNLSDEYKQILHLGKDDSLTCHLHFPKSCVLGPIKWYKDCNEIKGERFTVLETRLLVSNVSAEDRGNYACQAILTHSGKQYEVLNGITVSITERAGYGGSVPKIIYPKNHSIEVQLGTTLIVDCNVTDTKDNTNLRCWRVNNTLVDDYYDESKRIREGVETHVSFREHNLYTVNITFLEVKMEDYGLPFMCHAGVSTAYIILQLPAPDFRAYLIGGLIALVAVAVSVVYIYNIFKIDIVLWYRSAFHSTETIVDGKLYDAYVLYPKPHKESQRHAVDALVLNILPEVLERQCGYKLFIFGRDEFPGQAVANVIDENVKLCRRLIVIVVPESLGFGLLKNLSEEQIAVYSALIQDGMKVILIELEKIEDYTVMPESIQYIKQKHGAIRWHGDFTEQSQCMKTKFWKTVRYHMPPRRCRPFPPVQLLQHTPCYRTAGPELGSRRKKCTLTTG

[2] = molecular target: T1, IL-36R on human skin squamous cell line …; test: cell-based or functional assay; remark: listed apart in the source
[3] = molecular target: T2, human IL-36R full-length protein stably expressed on CHO-K1 cells (human, UniProt Q9HB29 20-575); test: FACS, CHO-K1 cells overexpressing human IL-36R
T2 construct: FlpIn CHO-K1 line expressing the full-length protein; also called human IL-36R on the surface of CHO-K1 cells; CHO-K1 cells overexpressing human IL-36R
T2 sequence: T1 sequence (looked up)

[4] = molecular target: T2, human IL-36R full-length protein stably …; test: FACS, CHO-K1 cells overexpressing human IL-36R; remark: listed apart in the source
[5] = molecular target: T2, human IL-36R full-length protein stably …; test: FACS, CHO-K1 cells overexpressing human IL-36R; remark: listed apart in the source
[6] = molecular target: T3, Human IL-36R protein (His + Avi Tag), Kactus IL1-HM4L2 (human, UniProt Q9HB29 20-335); test: SPR (Biacore 8K), antibody captured by anti-human IgG Fc, IL-36R as analyte
T3 construct: Bought protein; also called human IL-36R antigen protein; Human IL-36R antigen
T3 sequence: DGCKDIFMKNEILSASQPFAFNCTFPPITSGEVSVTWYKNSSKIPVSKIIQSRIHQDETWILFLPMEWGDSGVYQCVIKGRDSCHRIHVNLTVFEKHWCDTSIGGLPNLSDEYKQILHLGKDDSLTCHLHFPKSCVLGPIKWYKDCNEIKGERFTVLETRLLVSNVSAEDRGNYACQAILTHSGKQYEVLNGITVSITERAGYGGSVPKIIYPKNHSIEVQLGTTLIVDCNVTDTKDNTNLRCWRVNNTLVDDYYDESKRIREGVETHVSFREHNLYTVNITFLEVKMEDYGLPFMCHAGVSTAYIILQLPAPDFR

[7] = molecular target: T4, human IL-23 protein (ACROBiosystems, ILB-H52W5) (human, UniProt Q9NPF7 20-189; P29460 23-328); test: ELISA, human IL-23 coated
T4 construct: Bought protein; construct not described; also called Human IL-23 antigen; human IL-23 antigen protein
T4 sequence (looked up) 1: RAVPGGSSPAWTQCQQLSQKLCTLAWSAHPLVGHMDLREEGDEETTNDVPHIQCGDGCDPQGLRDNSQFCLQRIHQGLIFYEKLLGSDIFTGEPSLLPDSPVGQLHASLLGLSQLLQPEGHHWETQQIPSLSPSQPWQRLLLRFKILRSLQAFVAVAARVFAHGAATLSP
T4 sequence (looked up) 2: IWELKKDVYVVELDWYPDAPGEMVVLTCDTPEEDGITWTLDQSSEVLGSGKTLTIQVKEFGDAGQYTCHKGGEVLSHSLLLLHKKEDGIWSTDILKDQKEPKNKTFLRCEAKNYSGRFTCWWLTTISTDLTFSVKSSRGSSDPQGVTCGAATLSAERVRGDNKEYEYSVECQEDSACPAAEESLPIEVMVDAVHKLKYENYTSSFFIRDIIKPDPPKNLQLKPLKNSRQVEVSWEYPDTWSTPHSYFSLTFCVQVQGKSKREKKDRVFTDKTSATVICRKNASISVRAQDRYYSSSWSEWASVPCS

[8] = molecular target: T5, human IL-23 protein (Sino Biological, CT048-H08H) (human, UniProt Q9NPF7 20-189; P29460 23-328); test: SPR (Biacore 8K), antibody captured on Protein A chip, IL-23 as analyte
T5 construct: Detected with Anti-His-HRP in the ELISA, so it carries a His tag
T5 sequence (looked up) 1: T4 sequence (looked up) 1
T5 sequence (looked up) 2: T4 sequence (looked up) 2

[9] = molecular target: T5, human IL-23 protein (Sino Biological, …); test: competition ELISA, IL-23R coated, biotinylated IL-23 preincubated with antibody
[10] = molecular target: T4, human IL-23 protein (ACROBiosystems, …); test: SPR (Biacore 8K), antibody captured by anti-human IgG Fc, IL-23 as analyte
[11] = molecular target: T3, Human IL-36R protein (His + Avi Tag), …; test: SPR (Biacore 8K), antibody captured by anti-human IgG Fc, IL-36R as analyte; remark: listed apart in the source

IL-8 secretion (A431), IL-36α, IC50 [1]: 0.26 nM
IL-8 secretion (A431), IL-36β, IC50 [1]: 0.1 nM
IL-8 secretion (A431), IL-36γ, IC50 [1]: 0.04 nM
IL-36α-induced A431 IL-8 secretion IC50 [2]: 0.06 nM
EC50 [3]: 0.51 nM
Maximum MFI [3]: 13400 MFI
EC50 [4]: 0.51 nM
Maximum MFI [4]: 14200 MFI
EC50 [5]: 0.75 nM
Maximum MFI [5]: 12900 MFI
Kd [6]: 7.16 nM
koff [6]: 9.54e-05 s⁻¹
kon [6]: 13300 M⁻¹ s⁻¹
B1: BI655130 (anti-human IL-36R antibody from Boehringer Ingelheim) (antibody, human IgG1, kappa, L234A L235A, V domains shown)
VH: QVQLVQSGAEVKKPGASVKVSCKASGYSFTSSWIHWVKQAPGQGLEWMGEINPGNVRTNYNENFRNKVTMTVDTSISTAYMELSRLRSDDTAVYYCTVVFYGEPYFPYWGQGTLVTVSS
VL: QIVLTQSPGTLSLSPGERATMTCTASSSVSSSYFHWYQQKPGQAPRLWIYRTSRLASGVPDRFSGSGSGTDFTLTISRLEPEDAATYYCHQFHRSPLTFGAGTKLEIKR
notes: Control, self-expressed according to WO2013074569A1; also called B1655130

IL-8 secretion (A431), IL-36α, IC50 [1]: 0.64 nM
IL-8 secretion (A431), IL-36β, IC50 [1]: 0.26 nM
IL-8 secretion (A431), IL-36γ, IC50 [1]: 0.06 nM
IL-36α-induced A431 IL-8 secretion IC50 [2]: 0.15 nM
EC50 [3]: 0.37 nM
Maximum MFI [3]: 10900 MFI
EC50 [4]: 0.51 nM
Maximum MFI [4]: 11200 MFI
EC50 [5]: 0.64 nM
Maximum MFI [5]: 10600 MFI
Kd [6]: 6.4 nM
koff [6]: 0.000364 s⁻¹
kon [6]: 56800 M⁻¹ s⁻¹
B2: H4H14706P2 (anti-human IL-36R antibody from Regeneron) (antibody, human IgG4 S228P, kappa, V domains shown)
VH: EVQLVESGGGLVQPGRSLRLSCTASGFTFDDYAIHWVRQSPGKGLEWVSVISWNSDVIGYADSVKGRFTISRDNAKNSLYLQMNSLRAEDTALYYCAKGYNWNFFDYWGQGTLVTVSS
VL: EIVLTQSPATLSLSPGERATLSCRASQSVSSYLAWYQQKPGQAPRLLIYNAANRATDIPARFSGSGSGTDFTLTISSLEPEDFAVYYCQQRSNWPLTFGGGTKVEIKR
notes: Control, self-expressed according to WO2020018503A2

EC50 [7]: 4.72 nM
Kd [8]: 0.0651 nM
koff [8]: 4.91e-05 s⁻¹
kon [8]: 754000 M⁻¹ s⁻¹
IC50 [9]: 0.61 nM
B3: Risankizumab (anti-IL-23 antibody control molecule) (antibody, human IgG1, kappa, L234A L235A, V domains shown)
VH: QVQLVQSGAEVKKPGSSVKVSCKASGYTFTDQTIHWMRQAPGQGLEWIGYIYPRDDSPKYNENFKGKVTITADKSTSTAYMELSSLRSEDTAVYYCAIPDRSGYAWFIYWGQGTLVTVSS
VL: DIQMTQSPSSLSASVGDRVTITCKASRDVAIAVAWYQQKPGKVPKLLIYWASTRHTGVPSRFSGSGSRTDFTLTISSLQPEDVADYFCHQYSSYPFTFGSGTKLEIKR

IL-36α-induced A431 IL-8 secretion IC50 [2]: 0.34 nM
Kd [10]: 0.0702 nM
koff [10]: 6.02e-05 s⁻¹
kon [10]: 858000 M⁻¹ s⁻¹
Kd [11]: 17.7 nM
koff [11]: 0.000216 s⁻¹
kon [11]: 12200 M⁻¹ s⁻¹
B4: IL-36R-IL-23-04 (anti-IL-36R and anti-IL-23 bispecific antibody, VHH162_Hu11 on Hu29-19, Structure B) (bispecific antibody, human IgG1, kappa, L234A L235A)
heavy: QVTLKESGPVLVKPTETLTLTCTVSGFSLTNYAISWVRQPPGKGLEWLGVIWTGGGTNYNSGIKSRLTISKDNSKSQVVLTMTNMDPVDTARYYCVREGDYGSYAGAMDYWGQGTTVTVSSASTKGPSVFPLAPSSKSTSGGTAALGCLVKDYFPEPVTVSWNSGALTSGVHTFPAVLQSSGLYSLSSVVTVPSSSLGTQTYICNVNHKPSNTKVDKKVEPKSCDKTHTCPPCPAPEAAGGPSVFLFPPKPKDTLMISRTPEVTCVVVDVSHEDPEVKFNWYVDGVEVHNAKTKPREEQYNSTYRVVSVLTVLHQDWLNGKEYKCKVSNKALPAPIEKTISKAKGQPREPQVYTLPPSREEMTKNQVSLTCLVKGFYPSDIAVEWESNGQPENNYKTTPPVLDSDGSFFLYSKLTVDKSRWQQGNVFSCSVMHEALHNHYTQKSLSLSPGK
light: EVQLVESGGGLVQPGGSLRLSCAASGYSYRTQCLGWYRQAPGKQREAVATISGGGTSTYYSDSVKGRFTISQDNSKTTVYLQMNSLRAEDTAVYYCAKGLSVLGSWCHGGSSYEYTYSGQGTLVTVSSGGGGSGGGGSDIVLTQSPDSLAVSLGERATINCRASESVDYYGISSMHWFQQKPGQPPKLLIYRASNLESGIPARFSGSGSRTDFTLTISSLQAEDVAVYYCQQANKDPYTFGGGTKVEIKRTVAAPSVFIFPPSDEQLKSGTASVVCLLNNFYPREAKVQWKVDNALQSGNSQESVTEQDSKDSTYSLSSTLTLSKADYEKHKVYACEVTHQGLSSPVTKSFNRGEC
notes: VHH fused by a (G4S)2 linker to the N-terminus of the light chain; IgG1 L234A/L235A

IL-36α-induced A431 IL-8 secretion IC50 [2]: 0.29 nM
Kd [10]: 0.0517 nM
koff [10]: 4.93e-05 s⁻¹
kon [10]: 954000 M⁻¹ s⁻¹
Kd [11]: 4.28 nM
koff [11]: 0.000108 s⁻¹
kon [11]: 25300 M⁻¹ s⁻¹
B5: IL-36R-IL-23-03 (anti-IL-36R and anti-IL-23 bispecific antibody, VHH213_Hu07 on Hu29-19, Structure B) (bispecific antibody, human IgG1, kappa, L234A L235A)
heavy: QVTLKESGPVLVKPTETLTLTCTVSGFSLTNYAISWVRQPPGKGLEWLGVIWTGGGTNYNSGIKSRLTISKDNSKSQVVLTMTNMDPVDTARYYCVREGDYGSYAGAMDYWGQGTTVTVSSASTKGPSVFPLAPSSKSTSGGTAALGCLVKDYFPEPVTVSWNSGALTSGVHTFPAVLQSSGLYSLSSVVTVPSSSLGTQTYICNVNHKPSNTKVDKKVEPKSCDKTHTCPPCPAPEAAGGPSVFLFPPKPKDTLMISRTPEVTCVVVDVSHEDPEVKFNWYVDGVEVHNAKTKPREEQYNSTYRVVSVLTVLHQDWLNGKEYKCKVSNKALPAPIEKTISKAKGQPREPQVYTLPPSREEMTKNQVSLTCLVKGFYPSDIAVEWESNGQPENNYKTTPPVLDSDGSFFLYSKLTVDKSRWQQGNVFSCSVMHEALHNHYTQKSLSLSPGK
light: EVQLVESGGGLVQPGGSLRLSCAASGNTFSRYCMGWFRQAPGKELVGVAAIDSDGDTSYADSVEGRFTISRDNAKNTLYLQMNSLRAEDTAVYYCAADFTPSAPPRMGSGGYCFGDYWGQGTLVTVSSGGGGSGGGGSDIVLTQSPDSLAVSLGERATINCRASESVDYYGISSMHWFQQKPGQPPKLLIYRASNLESGIPARFSGSGSRTDFTLTISSLQAEDVAVYYCQQANKDPYTFGGGTKVEIKRTVAAPSVFIFPPSDEQLKSGTASVVCLLNNFYPREAKVQWKVDNALQSGNSQESVTEQDSKDSTYSLSSTLTLSKADYEKHKVYACEVTHQGLSSPVTKSFNRGEC
notes: as for B4
